Where a chain is given by its changes, count along the chain named. *1 amine or outer side, *2 acyl side, *3 side chain or, on linkers, in order; H or OH if unused. Where no end group is shown, it is not given here. Side-chain parts run from the residue outwards. [ ]: non-standard residue; d: D form. The star is where a group is joined. αMePhe(2-F) = C[C@](N)(Cc1ccccc1F)C(=O)O; γGlu = O=C(O)[C@H](CCC(=O)[*:2])N[*:1]; C14 diacid = O=C(O)CCCCCCCCCCCCC(=O)*; αMeY = C[C@](N)(Cc1ccc(O)cc1)C(=O)O; αMeF = C[C@](N)(Cc1ccccc1)C(=O)O; αMeL = CC(C)C[C@](C)(N)C(=O)O; Orn = NCCC[C@H](N)C(=O)O; AEEA = NCCOCCOCC(=O)O; Aib = CC(C)(N)C(=O)O
T1: human GIP receptor (human, UniProt P48546 22-466)
T1 sequence (looked up): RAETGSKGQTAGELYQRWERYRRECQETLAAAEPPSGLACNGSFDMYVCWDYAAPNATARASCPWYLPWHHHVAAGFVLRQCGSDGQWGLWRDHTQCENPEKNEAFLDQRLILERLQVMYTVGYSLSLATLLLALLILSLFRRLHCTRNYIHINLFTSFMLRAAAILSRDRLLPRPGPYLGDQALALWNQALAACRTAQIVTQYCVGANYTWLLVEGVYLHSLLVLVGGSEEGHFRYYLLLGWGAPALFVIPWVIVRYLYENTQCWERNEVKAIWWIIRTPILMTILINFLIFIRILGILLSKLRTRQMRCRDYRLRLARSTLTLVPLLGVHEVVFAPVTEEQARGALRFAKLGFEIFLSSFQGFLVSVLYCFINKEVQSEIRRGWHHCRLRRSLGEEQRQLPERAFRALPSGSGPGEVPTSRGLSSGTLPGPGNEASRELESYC

B1: Example 108 (peptide)
peptide: Y[Aib]EGT[αMePhe(2-F)]TSDK([AEEA-AEEA-γGlu-C14 diacid])SI[αMeL]LD[Orn]IAQ[Aib]EFI[dE][αMeY]LIEGGK([AEEA-AEEA-γGlu-C14 diacid])SSGAPPPS-NH2
modifications: N-terminus assumed
SMILES: CC[C@H](C)[C@H](NC(=O)[C@H](CCCN)NC(=O)[C@H](CC(=O)O)NC(=O)[C@H](CC(C)C)NC(=O)[C@](C)(CC(C)C)NC(=O)[C@@H](NC(=O)[C@H](CO)NC(=O)[C@H](CCCCNC(=O)COCCOCCNC(=O)COCCOCCNC(=O)CC[C@H](NC(=O)CCCCCCCCCCCCC(=O)O)C(=O)O)NC(=O)[C@H](CC(=O)O)NC(=O)[C@H](CO)NC(=O)[C@@H](NC(=O)[C@](C)(Cc1ccccc1F)NC(=O)[C@@H](NC(=O)CNC(=O)[C@H](CCC(=O)O)NC(=O)C(C)(C)NC(=O)[C@@H](N)Cc1ccc(O)cc1)[C@@H](C)O)[C@@H](C)O)[C@@H](C)CC)C(=O)N[C@@H](C)C(=O)N[C@@H](CCC(N)=O)C(=O)NC(C)(C)C(=O)N[C@@H](CCC(=O)O)C(=O)N[C@@H](Cc1ccccc1)C(=O)N[C@H](C(=O)N[C@H](CCC(=O)O)C(=O)N[C@@](C)(Cc1ccc(O)cc1)C(=O)N[C@@H](CC(C)C)C(=O)N[C@H](C(=O)N[C@@H](CCC(=O)O)C(=O)NCC(=O)NCC(=O)N[C@@H](CCCCNC(=O)COCCOCCNC(=O)COCCOCCNC(=O)CC[C@H](NC(=O)CCCCCCCCCCCCC(=O)O)C(=O)O)C(=O)N[C@@H](CO)C(=O)N[C@@H](CO)C(=O)NCC(=O)N[C@@H](C)C(=O)N1CCC[C@H]1C(=O)N1CCC[C@H]1C(=O)N1CCC[C@H]1C(=O)N[C@@H](CO)C(N)=O)[C@@H](C)CC)[C@@H](C)CC
B2: Example 112 (peptide)
peptide: Y[Aib]EGT[αMePhe(2-F)]TSDK([AEEA-AEEA-γGlu-C14 diacid])SI[αMeL]LD[Orn]IAQ[Aib]E[αMeF]I[dE][αMeY]LIEGGK([AEEA-AEEA-γGlu-C14 diacid])SSGAPPPS-NH2
modifications: N-terminus assumed
SMILES: CC[C@H](C)[C@H](NC(=O)[C@H](CCCN)NC(=O)[C@H](CC(=O)O)NC(=O)[C@H](CC(C)C)NC(=O)[C@](C)(CC(C)C)NC(=O)[C@@H](NC(=O)[C@H](CO)NC(=O)[C@H](CCCCNC(=O)COCCOCCNC(=O)COCCOCCNC(=O)CC[C@H](NC(=O)CCCCCCCCCCCCC(=O)O)C(=O)O)NC(=O)[C@H](CC(=O)O)NC(=O)[C@H](CO)NC(=O)[C@@H](NC(=O)[C@](C)(Cc1ccccc1F)NC(=O)[C@@H](NC(=O)CNC(=O)[C@H](CCC(=O)O)NC(=O)C(C)(C)NC(=O)[C@@H](N)Cc1ccc(O)cc1)[C@@H](C)O)[C@@H](C)O)[C@@H](C)CC)C(=O)N[C@@H](C)C(=O)N[C@@H](CCC(N)=O)C(=O)NC(C)(C)C(=O)N[C@@H](CCC(=O)O)C(=O)N[C@@](C)(Cc1ccccc1)C(=O)N[C@H](C(=O)N[C@H](CCC(=O)O)C(=O)N[C@@](C)(Cc1ccc(O)cc1)C(=O)N[C@@H](CC(C)C)C(=O)N[C@H](C(=O)N[C@@H](CCC(=O)O)C(=O)NCC(=O)NCC(=O)N[C@@H](CCCCNC(=O)COCCOCCNC(=O)COCCOCCNC(=O)CC[C@H](NC(=O)CCCCCCCCCCCCC(=O)O)C(=O)O)C(=O)N[C@@H](CO)C(=O)N[C@@H](CO)C(=O)NCC(=O)N[C@@H](C)C(=O)N1CCC[C@H]1C(=O)N1CCC[C@H]1C(=O)N1CCC[C@H]1C(=O)N[C@@H](CO)C(N)=O)[C@@H](C)CC)[C@@H](C)CC
B3: Example 111 (peptide)
peptide: Y[Aib]EGT[αMePhe(2-F)]TSDK([AEEA-AEEA-γGlu-C14 diacid])SI[αMeL]LD[Orn]IAQ[Aib]E[αMeF]I[dE][αMeY]LIK([AEEA-AEEA-γGlu-C14 diacid])GGPSSGAPPPS-NH2
modifications: N-terminus assumed
SMILES: CC[C@H](C)[C@H](NC(=O)[C@H](CCCN)NC(=O)[C@H](CC(=O)O)NC(=O)[C@H](CC(C)C)NC(=O)[C@](C)(CC(C)C)NC(=O)[C@@H](NC(=O)[C@H](CO)NC(=O)[C@H](CCCCNC(=O)COCCOCCNC(=O)COCCOCCNC(=O)CC[C@H](NC(=O)CCCCCCCCCCCCC(=O)O)C(=O)O)NC(=O)[C@H](CC(=O)O)NC(=O)[C@H](CO)NC(=O)[C@@H](NC(=O)[C@](C)(Cc1ccccc1F)NC(=O)[C@@H](NC(=O)CNC(=O)[C@H](CCC(=O)O)NC(=O)C(C)(C)NC(=O)[C@@H](N)Cc1ccc(O)cc1)[C@@H](C)O)[C@@H](C)O)[C@@H](C)CC)C(=O)N[C@@H](C)C(=O)N[C@@H](CCC(N)=O)C(=O)NC(C)(C)C(=O)N[C@@H](CCC(=O)O)C(=O)N[C@@](C)(Cc1ccccc1)C(=O)N[C@H](C(=O)N[C@H](CCC(=O)O)C(=O)N[C@@](C)(Cc1ccc(O)cc1)C(=O)N[C@@H](CC(C)C)C(=O)N[C@H](C(=O)N[C@@H](CCCCNC(=O)COCCOCCNC(=O)COCCOCCNC(=O)CC[C@H](NC(=O)CCCCCCCCCCCCC(=O)O)C(=O)O)C(=O)NCC(=O)NCC(=O)N1CCC[C@H]1C(=O)N[C@@H](CO)C(=O)N[C@@H](CO)C(=O)NCC(=O)N[C@@H](C)C(=O)N1CCC[C@H]1C(=O)N1CCC[C@H]1C(=O)N1CCC[C@H]1C(=O)N[C@@H](CO)C(N)=O)[C@@H](C)CC)[C@@H](C)CC
B4: Example 113 (peptide)
peptide: YXEGTXTSDXXIXLDXKAQXEFIKXLIEGGPSSGAPPPS
modifications: Aib2, αMeF(2F)6, 4Pal10, Aib11, αMeL13, Orn16, Aib20, αMeY25, K17 and K24: K(AEEA2-(γ-Glu)-CO-(CH2)12-CO2H), C-terminal NH2
B5: Example 11 (peptide)
peptide: B4 peptide with X11S, K24X, P31K
modifications: Aib2, αMeF(2F)6, 4Pal10, αMeL13, Orn16, Aib20, D-Glu24, αMeY25, K17 and K31: K(AEEA-(γ-Glu)-CO-(CH2)12-CO2H), C-terminal NH2
B6: Example 114 (peptide)
peptide: B4 peptide with X10V, X11S
modifications: Aib2, αMeF(2F)6, αMeL13, Orn16, Aib20, αMeY25, K17 and K24: K(AEEA2-(γ-Glu)-CO-(CH2)12-CO2H), C-terminal NH2
B7: Example 107 (peptide)
peptide: Y[Aib]EGT[αMePhe(2-F)]TSDK([AEEA-AEEA-γGlu-C14 diacid])SI[αMeL]LD[Orn]IAQ[Aib]EFI[dE][αMeY]LIK([AEEA-AEEA-γGlu-C14 diacid])GGPSSGAPPPS-NH2
modifications: N-terminus assumed
SMILES: CC[C@H](C)[C@H](NC(=O)[C@H](CCCN)NC(=O)[C@H](CC(=O)O)NC(=O)[C@H](CC(C)C)NC(=O)[C@](C)(CC(C)C)NC(=O)[C@@H](NC(=O)[C@H](CO)NC(=O)[C@H](CCCCNC(=O)COCCOCCNC(=O)COCCOCCNC(=O)CC[C@H](NC(=O)CCCCCCCCCCCCC(=O)O)C(=O)O)NC(=O)[C@H](CC(=O)O)NC(=O)[C@H](CO)NC(=O)[C@@H](NC(=O)[C@](C)(Cc1ccccc1F)NC(=O)[C@@H](NC(=O)CNC(=O)[C@H](CCC(=O)O)NC(=O)C(C)(C)NC(=O)[C@@H](N)Cc1ccc(O)cc1)[C@@H](C)O)[C@@H](C)O)[C@@H](C)CC)C(=O)N[C@@H](C)C(=O)N[C@@H](CCC(N)=O)C(=O)NC(C)(C)C(=O)N[C@@H](CCC(=O)O)C(=O)N[C@@H](Cc1ccccc1)C(=O)N[C@H](C(=O)N[C@H](CCC(=O)O)C(=O)N[C@@](C)(Cc1ccc(O)cc1)C(=O)N[C@@H](CC(C)C)C(=O)N[C@H](C(=O)N[C@@H](CCCCNC(=O)COCCOCCNC(=O)COCCOCCNC(=O)CC[C@H](NC(=O)CCCCCCCCCCCCC(=O)O)C(=O)O)C(=O)NCC(=O)NCC(=O)N1CCC[C@H]1C(=O)N[C@@H](CO)C(=O)N[C@@H](CO)C(=O)NCC(=O)N[C@@H](C)C(=O)N1CCC[C@H]1C(=O)N1CCC[C@H]1C(=O)N1CCC[C@H]1C(=O)N[C@@H](CO)C(N)=O)[C@@H](C)CC)[C@@H](C)CC
B8: Example 109 (peptide)
peptide: YXEGTXTSDKSIXLDXIAQXKXIXXLIEGGPSSGAPPPS
modifications: Aib2, αMeF(2F)6, αMeL13, Orn16, Aib20, αMeF22, D-Glu24, αMeY25, K10 and K21: K(AEEA2-(γ-Glu)-CO-(CH2)12-CO2H), C-terminal NH2

These binders were tested against human glucagon receptor (human, UniProt P47871 26-477) (assay: cell-based or functional assay).

Binder	EC50, cAMP
B1	> 9950 nM
B2	> 9950 nM
B3	> 9950 nM
B4	> 9950 nM
B5	> 9950 nM
B6	> 9950 nM
Y[Aib]EGT[αMePhe(2-F)]TSDK([AEEA-AEEA-γGlu-C14 diacid])SI[αMeL]LD[Orn]IAQ[Aib]E[αMeF]IK([AEEA-AEEA-γGlu-C14 diacid])[αMeY]LIEGGPSSGAPPPS-NH2 [Example 110]	> 9950 nM
Y[Aib]EGT[αMePhe(2-F)]TSDV[Aib]I[αMeL]LD[Orn]K([AEEA-AEEA-γGlu-C14 diacid])AQ[Aib]EFIK([AEEA-AEEA-γGlu-C14 diacid])[αMeY]LIEGGPSSGAPPPS-NH2 [Example 115]	> 9950 nM
B7	> 9950 nM
B8	> 9950 nM

These binders were tested against human GLP-1 receptor (human, UniProt P43220 24-463) (assay: cell-based or functional assay).

Binder	EC50, cAMP	Emax, cAMP
B1	0.701 nM	97.6%
B2	2.26 nM	
B3	2.28 nM	121%
B4	0.291 nM	
B5	0.511 nM	
B6	0.176 nM	91.7%
Y[Aib]EGT[αMePhe(2-F)]TSDK([AEEA-AEEA-γGlu-C14 diacid])SI[αMeL]LD[Orn]IAQ[Aib]E[αMeF]IK([AEEA-AEEA-γGlu-C14 diacid])[αMeY]LIEGGPSSGAPPPS-NH2 [Example 110]	1.43 nM	98.8%
Y[Aib]EGT[αMePhe(2-F)]TSDV[Aib]I[αMeL]LD[Orn]K([AEEA-AEEA-γGlu-C14 diacid])AQ[Aib]EFIK([AEEA-AEEA-γGlu-C14 diacid])[αMeY]LIEGGPSSGAPPPS-NH2 [Example 115]	0.16 nM	91.6%
B7	1.01 nM	93.4%
B8	0.846 nM	

What follows are binders tested against T1, human GIP receptor (assay: cell-based or functional assay).

Binder	EC50, cAMP	Emax, cAMP
B1	0.0249 nM	85.2%
B2	0.0229 nM	93.6%
B3	0.0202 nM	76.1%
B4	0.0331 nM	97.9%
B5	0.0135 nM	
B6	0.0613 nM	93.8%
Y[Aib]EGT[αMePhe(2-F)]TSDK([AEEA-AEEA-γGlu-C14 diacid])SI[αMeL]LD[Orn]IAQ[Aib]E[αMeF]IK([AEEA-AEEA-γGlu-C14 diacid])[αMeY]LIEGGPSSGAPPPS-NH2 [Example 110]	0.0417 nM	
Y[Aib]EGT[αMePhe(2-F)]TSDV[Aib]I[αMeL]LD[Orn]K([AEEA-AEEA-γGlu-C14 diacid])AQ[Aib]EFIK([AEEA-AEEA-γGlu-C14 diacid])[αMeY]LIEGGPSSGAPPPS-NH2 [Example 115]	0.103 nM	
B7	0.0473 nM	94.3%
B8	0.0236 nM	84.8%

Source: patent US20230265151A1, “GIP/GLP1 CO-AGONIST COMPOUNDS” (priority 2020, published 2023)
